Biological target: T1, murine NKG2D on NK cells / splenocytes (mouse, UniProt O54709 1-232)
T1 construct: whole, on cells; also called NKG2D receptor
T1 sequence: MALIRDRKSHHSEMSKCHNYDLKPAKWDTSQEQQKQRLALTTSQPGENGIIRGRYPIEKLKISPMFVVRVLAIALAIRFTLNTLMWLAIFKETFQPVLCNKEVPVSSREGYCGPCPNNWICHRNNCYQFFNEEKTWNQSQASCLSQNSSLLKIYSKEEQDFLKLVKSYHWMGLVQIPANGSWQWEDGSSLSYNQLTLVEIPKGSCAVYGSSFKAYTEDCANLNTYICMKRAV
Experiment: flow cytometry, fluorescently labeled construct on bulk splenocytes at 37° C.

B1: OMCP-mutIL2 (R38A, F42K, C125S IL2-OMCP construct) (other)
chain: HKLAFNFNLEINGSDTHSTVDVYLDDSQIITFDGKDIRPTIPFMIGDEIFLPFYKNVFSEFFSLFRRVPTSTPYEDLTYFYECDYTDNKSTFDQFYLYNGEEYTVKTQEATNKNMWLTTSEFRLKKWFDGEDCIMHLRSLVRKMEDSKRNTGGTGSSGSSDYKDDDDKHHHHHHHHGSSGSSAPTSSSTKKTQLQLEHLLLDLQMILNGINNYKNPKLTAMLTKKFYMPKKATELKHLQCLEEELKPLEEVLNLAQSKNFHLRPRDLISNINVIVLELKGSETTFMCEYADETATIVEFLNRWITFSQSIISTLT
notes: also called OMCP-mutant IL2; OMCP-IL2 construct
  binding result: binds

From patent publication US20190119345A1 (published 2019)
